In this experiment the target is hIL-12 receptor signaling complex (hIL-12Rβ1 and hIL-12Rβ2) (human) (UniProt P42701). Kind of experiment: cell-based or functional assay.
Sequence of hIL-12 receptor signaling complex (hIL-12Rβ1 and hIL-12Rβ2) (human) (Q99665 24-862, chain 2 of 2, other chains not shown): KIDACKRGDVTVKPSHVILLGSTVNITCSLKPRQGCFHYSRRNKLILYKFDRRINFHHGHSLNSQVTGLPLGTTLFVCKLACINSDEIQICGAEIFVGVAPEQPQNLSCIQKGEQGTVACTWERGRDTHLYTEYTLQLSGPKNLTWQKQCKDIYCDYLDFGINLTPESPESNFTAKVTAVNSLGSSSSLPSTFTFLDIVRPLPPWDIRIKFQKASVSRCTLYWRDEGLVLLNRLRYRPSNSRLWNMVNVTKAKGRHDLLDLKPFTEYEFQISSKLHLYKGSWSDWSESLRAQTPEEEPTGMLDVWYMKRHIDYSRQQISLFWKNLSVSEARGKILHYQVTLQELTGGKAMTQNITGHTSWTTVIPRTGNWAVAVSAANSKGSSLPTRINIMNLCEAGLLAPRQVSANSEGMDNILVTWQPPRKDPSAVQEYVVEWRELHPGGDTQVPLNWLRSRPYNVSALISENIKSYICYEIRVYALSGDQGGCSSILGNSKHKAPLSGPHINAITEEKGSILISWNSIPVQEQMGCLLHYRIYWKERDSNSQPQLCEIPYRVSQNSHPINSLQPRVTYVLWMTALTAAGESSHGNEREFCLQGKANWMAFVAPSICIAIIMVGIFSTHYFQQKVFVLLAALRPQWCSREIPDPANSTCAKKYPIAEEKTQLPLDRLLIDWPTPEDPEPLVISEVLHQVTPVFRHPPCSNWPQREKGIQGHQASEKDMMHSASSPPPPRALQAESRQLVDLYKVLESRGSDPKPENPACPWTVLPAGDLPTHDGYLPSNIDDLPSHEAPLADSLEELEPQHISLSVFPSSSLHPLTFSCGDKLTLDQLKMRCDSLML

For the substance “human IL12 mutein, hIL-12p40 E81A, F82S with hIL-12p35-8X His (from UniProt P29460 23-328; P29459 23-219) (ligand)”, the pSTAT4 [%+] EC50, CD8+ T Cells stood at 0.86 nM; the pSTAT4 [%+] EC50, CD56hi NK Cells amounted to 1.4 nM; the pSTAT4 [%+] Emax, CD8+ T Cells is 80.5 %+; the pSTAT4 [%+] Emax, CD56hi NK Cells is 86.1 %+. This substance also registered a pSTAT4 [gMFI] EC50, CD8+ T Cells of 3.84 nM; a pSTAT4 [gMFI] EC50, CD56hi NK Cells of 6.29 nM; a pSTAT4 [gMFI] Emax, CD8+ T Cells of 95900 gMFI; a pSTAT4 [gMFI] Emax, CD56hi NK Cells of 26200 gMFI.

Turning to “human IL12 mutein of the F82X panel printed as E81A/F82F/K106K in row r9 of Tables 10 and 11 (label printed a second time in r19 with other values) (ligand)”, the pSTAT4 [%+] EC50, CD8+ T Cells turned out to be 1.86 nM; the pSTAT4 [%+] EC50, CD56hi NK Cells was 2.27 nM; the pSTAT4 [%+] Emax, CD8+ T Cells turned out to be 75.9 %+; the pSTAT4 [%+] Emax, CD56hi NK Cells worked out at 78.2 %+. Moreover, the pSTAT4 [gMFI] EC50, CD8+ T Cells was 6.65 nM; the pSTAT4 [gMFI] EC50, CD56hi NK Cells was found to be 9.12 nM; the pSTAT4 [gMFI] Emax, CD8+ T Cells worked out at 80100 gMFI; the pSTAT4 [gMFI] Emax, CD56hi NK Cells turned out to be 21600 gMFI.

The record behind these values is patent publication US20250388640A1.
